Laboratory results as given in paper PMC6555819, “Comprehensive study of nuclear receptor DNA binding provides a revised framework for understanding receptor specificity”.

Target: PPARg:RXRa (Homo sapiens, UniProt P37231;P19793 full;full)
Test: no ligand; PBM; 180 nM : 90 nM RXRa; PBS pH 7.4, 2% milk, 0.02% Triton X-100, 1 mM DTT, BSA, 0.4 mg/ml salmon testes DNA
Settings: tags: His kept;His cleaved; copies: 1;1; label: surface-attached array probe

PPARg:RXRa, sequence (P37231 29-505, chain 1 of 2): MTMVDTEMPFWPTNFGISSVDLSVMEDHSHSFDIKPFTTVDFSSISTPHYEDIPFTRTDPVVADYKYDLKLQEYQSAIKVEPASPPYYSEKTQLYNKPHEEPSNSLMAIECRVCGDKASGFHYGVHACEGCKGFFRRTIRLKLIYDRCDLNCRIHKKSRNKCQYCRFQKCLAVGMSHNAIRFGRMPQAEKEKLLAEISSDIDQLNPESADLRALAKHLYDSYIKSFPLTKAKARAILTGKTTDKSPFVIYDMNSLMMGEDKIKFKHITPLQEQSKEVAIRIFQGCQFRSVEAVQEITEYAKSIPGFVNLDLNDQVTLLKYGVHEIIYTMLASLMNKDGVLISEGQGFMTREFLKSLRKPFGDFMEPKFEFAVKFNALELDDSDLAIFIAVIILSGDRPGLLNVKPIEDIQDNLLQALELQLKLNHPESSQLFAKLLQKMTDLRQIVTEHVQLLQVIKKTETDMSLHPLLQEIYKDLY
PPARg:RXRa, sequence (P19793 whole entry, chain 2 of 2): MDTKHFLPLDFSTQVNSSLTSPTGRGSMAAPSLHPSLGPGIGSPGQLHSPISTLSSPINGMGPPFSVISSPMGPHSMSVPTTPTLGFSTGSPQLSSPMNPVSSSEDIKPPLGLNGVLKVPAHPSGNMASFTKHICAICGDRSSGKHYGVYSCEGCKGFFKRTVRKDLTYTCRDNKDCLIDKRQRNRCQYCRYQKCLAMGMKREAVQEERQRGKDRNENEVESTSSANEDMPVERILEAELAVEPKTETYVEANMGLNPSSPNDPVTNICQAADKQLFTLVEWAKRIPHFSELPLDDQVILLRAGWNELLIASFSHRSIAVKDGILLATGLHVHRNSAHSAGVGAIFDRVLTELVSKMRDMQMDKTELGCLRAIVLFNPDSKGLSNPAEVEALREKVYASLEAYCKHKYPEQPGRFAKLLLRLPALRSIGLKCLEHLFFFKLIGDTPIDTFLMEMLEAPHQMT

Row | Binder | binding signal
1 | NRC3_wobSeed31_DR1_A13G_o1 (dsDNA) DNA 1: GCTCATATAGGTGAAAGGTGAAAGTCGGTGTGGTAAGCGATTGACAGCGTAGAATGAAGG DNA 2: CCTTCATTCTACGCTGTCAATCGCTTACCACACCGACTTTCACCTTTCACCTATATGAGC | 11.6 PBM z-score against 500 random probes
2 | NRC3_wobSeed31_DR1_A13T_o1 (dsDNA) DNA 1: GCTCATATAGGTTAAAGGTGAAAGTCGGTGTGGTAAGCGATTGACAGCGTAGAATGAAGG DNA 2: CCTTCATTCTACGCTGTCAATCGCTTACCACACCGACTTTCACCTTTAACCTATATGAGC | 10.8 PBM z-score against 500 random probes
3 | NRC3_wobSeed1_DR0_G23T_o1 (dsDNA) DNA 1: GCCAAACTAGGTCAAGGTCAAATTCGGTTTGTGCCAGCGATTGACAGCGTAGAATGAAGG DNA 2: CCTTCATTCTACGCTGTCAATCGCTGGCACAAACCGAATTTGACCTTGACCTAGTTTGGC | 10.2 PBM z-score against 500 random probes
4 | NRC3_wobSeed1_DR0_A4T_o1 (dsDNA) DNA 1: GCCTAACTAGGTCAAGGTCAAAGTCGGTTTGTGCCAGCGATTGACAGCGTAGAATGAAGG DNA 2: CCTTCATTCTACGCTGTCAATCGCTGGCACAAACCGACTTTGACCTTGACCTAGTTAGGC | 10 PBM z-score against 500 random probes
5 | NRC3_wobSeed1_DR0_C25A_o1 (dsDNA) DNA 1: GCCAAACTAGGTCAAGGTCAAAGTAGGTTTGTGCCAGCGATTGACAGCGTAGAATGAAGG DNA 2: CCTTCATTCTACGCTGTCAATCGCTGGCACAAACCTACTTTGACCTTGACCTAGTTTGGC | 9.94 PBM z-score against 500 random probes
6 | NRC3_wobSeed1_DR0_C7G_o1 (dsDNA) DNA 1: GCCAAAGTAGGTCAAGGTCAAAGTCGGTTTGTGCCAGCGATTGACAGCGTAGAATGAAGG DNA 2: CCTTCATTCTACGCTGTCAATCGCTGGCACAAACCGACTTTGACCTTGACCTACTTTGGC | 10 PBM z-score against 500 random probes
7 | NRC3_wobSeed27_DR1_C6T_o1 (dsDNA) DNA 1: GCACTTGGAGGACAAAGGTCAGAGCTACGCCAGTGAGCGATTGACAGCGTAGAATGAAGG DNA 2: CCTTCATTCTACGCTGTCAATCGCTCACTGGCGTAGCTCTGACCTTTGTCCTCCAAGTGC | 10.1 PBM z-score against 500 random probes
8 | NRC3_wobSeed27_DR1_C6A_o1 (dsDNA) DNA 1: GCACTAGGAGGACAAAGGTCAGAGCTACGCCAGTGAGCGATTGACAGCGTAGAATGAAGG DNA 2: CCTTCATTCTACGCTGTCAATCGCTCACTGGCGTAGCTCTGACCTTTGTCCTCCTAGTGC | 10 PBM z-score against 500 random probes
9 | NRC3_wobSeed47_DR1_G8T_o1 (dsDNA) DNA 1: GCGGAACTAGGGCAAAGTTGATAGCATCTGTCGACGGCGATTGACAGCGTAGAATGAAGG DNA 2: CCTTCATTCTACGCTGTCAATCGCCGTCGACAGATGCTATCAACTTTGCCCTAGTTCCGC | 10 PBM z-score against 500 random probes
10 | NRC3_wobSeed42_DR1_A8T_o1 (dsDNA) DNA 1: GCTATACTGGGTCAAAGGCCAGAGTACGAATGTCGAGCGATTGACAGCGTAGAATGAAGG DNA 2: CCTTCATTCTACGCTGTCAATCGCTCGACATTCGTACTCTGGCCTTTGACCCAGTATAGC | 10.8 PBM z-score against 500 random probes
11 | NRC3_wobSeed25_DR1_A22G_o1 (dsDNA) DNA 1: GCCAAACTAGGTCAAAGGTCAGAGTCGAGCCAACCAGCGATTGACAGCGTAGAATGAAGG DNA 2: CCTTCATTCTACGCTGTCAATCGCTGGTTGGCTCGACTCTGACCTTTGACCTAGTTTGGC | 14.2 PBM z-score against 500 random probes
12 | NRC3_wobSeed25_DR1_A23C_o1 (dsDNA) DNA 1: GCCAAACTAGGTCAAAGGTCAACGTCGAGCCAACCAGCGATTGACAGCGTAGAATGAAGG DNA 2: CCTTCATTCTACGCTGTCAATCGCTGGTTGGCTCGACGTTGACCTTTGACCTAGTTTGGC | 14.2 PBM z-score against 500 random probes
13 | NRC3_wobSeed29_DR1_A23G_o1 (dsDNA) DNA 1: GCGCTTACGGGTCAAAGGTTATGGCATGAATAGAATGCGATTGACAGCGTAGAATGAAGG DNA 2: CCTTCATTCTACGCTGTCAATCGCATTCTATTCATGCCATAACCTTTGACCCGTAAGCGC | 12 PBM z-score against 500 random probes
14 | NRC3_wobSeed30_DR1_C8T_o1 (dsDNA) DNA 1: GCACTAGTAGGCCAAGGGTCACTCAAGATTAGTCCGGCGATTGACAGCGTAGAATGAAGG DNA 2: CCTTCATTCTACGCTGTCAATCGCCGGACTAATCTTGAGTGACCCTTGGCCTACTAGTGC | 10.9 PBM z-score against 500 random probes
15 | NRC3_wobSeed30_DR1_G16A_o1 (dsDNA) DNA 1: GCACTAGCAGGCCAAAGGTCACTCAAGATTAGTCCGGCGATTGACAGCGTAGAATGAAGG DNA 2: CCTTCATTCTACGCTGTCAATCGCCGGACTAATCTTGAGTGACCTTTGGCCTGCTAGTGC | 10.2 PBM z-score against 500 random probes
16 | NRC3_wobSeed35_DR1_T11G_o1 (dsDNA) DNA 1: GCGCTATTAGGTGAAAGGGCAACCGAATGATTCTCGGCGATTGACAGCGTAGAATGAAGG DNA 2: CCTTCATTCTACGCTGTCAATCGCCGAGAATCATTCGGTTGCCCTTTCACCTAATAGCGC | 9.85 PBM z-score against 500 random probes
17 | NRC3_wobSeed97_DR4_G27A_o1 (dsDNA) DNA 1: GCCAAACTAGGTCACGAAAGGTCAAAATCGAATGACGCGATTGACAGCGTAGAATGAAGG DNA 2: CCTTCATTCTACGCTGTCAATCGCGTCATTCGATTTTGACCTTTCGTGACCTAGTTTGGC | 10.9 PBM z-score against 500 random probes

Row | Binder | binding signal
18 | NRC3_wobSeed97_DR4_C7G_o1 (dsDNA) DNA 1: GCCAAAGTAGGTCACGAAAGGTCAAAGTCGAATGACGCGATTGACAGCGTAGAATGAAGG DNA 2: CCTTCATTCTACGCTGTCAATCGCGTCATTCGACTTTGACCTTTCGTGACCTACTTTGGC | 10.8 PBM z-score against 500 random probes
19 | NRC3_wobSeed97_DR4_A4T_o1 (dsDNA) DNA 1: GCCTAACTAGGTCACGAAAGGTCAAAGTCGAATGACGCGATTGACAGCGTAGAATGAAGG DNA 2: CCTTCATTCTACGCTGTCAATCGCGTCATTCGACTTTGACCTTTCGTGACCTAGTTAGGC | 10.8 PBM z-score against 500 random probes
20 | NRC3_wobSeed97_DR4_C29T_o1 (dsDNA) DNA 1: GCCAAACTAGGTCACGAAAGGTCAAAGTTGAATGACGCGATTGACAGCGTAGAATGAAGG DNA 2: CCTTCATTCTACGCTGTCAATCGCGTCATTCAACTTTGACCTTTCGTGACCTAGTTTGGC | 10.9 PBM z-score against 500 random probes
21 | NRC3_wobSeed33_DR1_A13C_o1 (dsDNA) DNA 1: GCATCTCTAGGTCAAAGTTCAGTGAATCCCGAGGATGCGATTGACAGCGTAGAATGAAGG DNA 2: CCTTCATTCTACGCTGTCAATCGCATCCTCGGGATTCACTGAACTTTGACCTAGAGATGC | 11.7 PBM z-score against 500 random probes
22 | NRC3_wobSeed33_DR1_C5A_o1 (dsDNA) DNA 1: GCATATCTAGGTAAAAGTTCAGTGAATCCCGAGGATGCGATTGACAGCGTAGAATGAAGG DNA 2: CCTTCATTCTACGCTGTCAATCGCATCCTCGGGATTCACTGAACTTTTACCTAGATATGC | 10.1 PBM z-score against 500 random probes
23 | NRC3_wobSeed33_DR1_A13G_o1 (dsDNA) DNA 1: GCATCTCTAGGTGAAAGTTCAGTGAATCCCGAGGATGCGATTGACAGCGTAGAATGAAGG DNA 2: CCTTCATTCTACGCTGTCAATCGCATCCTCGGGATTCACTGAACTTTCACCTAGAGATGC | 10.7 PBM z-score against 500 random probes
24 | NRC3_wobSeed49_DR2_T26G_o1 (dsDNA) DNA 1: GCCAAACTAGGTCAAGAGGTCAAAGGCCGCTTCCCGGCGATTGACAGCGTAGAATGAAGG DNA 2: CCTTCATTCTACGCTGTCAATCGCCGGGAAGCGGCCTTTGACCTCTTGACCTAGTTTGGC | 10.9 PBM z-score against 500 random probes
25 | NRC3_wobSeed49_DR2_A15C_o1 (dsDNA) DNA 1: GCCAAACTAGGTCACGAGGTCAAAGTCCGCTTCCCGGCGATTGACAGCGTAGAATGAAGG DNA 2: CCTTCATTCTACGCTGTCAATCGCCGGGAAGCGGACTTTGACCTCGTGACCTAGTTTGGC | 10.5 PBM z-score against 500 random probes
26 | NRC3_wobSeed121_DR5_C7G_o1 (dsDNA) DNA 1: GCCAAAGTAGGTCACCGGAAGGTCAAAGTCCGCATGGCGATTGACAGCGTAGAATGAAGG DNA 2: CCTTCATTCTACGCTGTCAATCGCCATGCGGACTTTGACCTTCCGGTGACCTACTTTGGC | 10.4 PBM z-score against 500 random probes
27 | NRC3_wobSeed121_DR5_A4T_o1 (dsDNA) DNA 1: GCCTAACTAGGTCACCGGAAGGTCAAAGTCCGCATGGCGATTGACAGCGTAGAATGAAGG DNA 2: CCTTCATTCTACGCTGTCAATCGCCATGCGGACTTTGACCTTCCGGTGACCTAGTTAGGC | 10.2 PBM z-score against 500 random probes
28 | NRC3_wobSeed73_DR3_A4T_o1 (dsDNA) DNA 1: GCCTAACTAGGTCACAGAGGTCAAAGTCCGTGCGTAGCGATTGACAGCGTAGAATGAAGG DNA 2: CCTTCATTCTACGCTGTCAATCGCTACGCACGGACTTTGACCTCTGTGACCTAGTTAGGC | 10.9 PBM z-score against 500 random probes
29 | NRC3_wobSeed39_DR1_A19C_o1 (dsDNA) DNA 1: GCCGAACTAGGTCAAAGGCCAGTGAAAGGCGACGTAGCGATTGACAGCGTAGAATGAAGG DNA 2: CCTTCATTCTACGCTGTCAATCGCTACGTCGCCTTTCACTGGCCTTTGACCTAGTTCGGC | 11.3 PBM z-score against 500 random probes
30 | NRC3_wobSeed39_DR1_G22C_o1 (dsDNA) DNA 1: GCCGAACTAGGTCAAAGGACACTGAAAGGCGACGTAGCGATTGACAGCGTAGAATGAAGG DNA 2: CCTTCATTCTACGCTGTCAATCGCTACGTCGCCTTTCAGTGTCCTTTGACCTAGTTCGGC | 11.2 PBM z-score against 500 random probes
31 | NRC3_wobSeed32_DR1_T20C_o1 (dsDNA) DNA 1: GCTCTTGTAGATCAAAGGTCAAGAAAGCCGAAGCCTGCGATTGACAGCGTAGAATGAAGG DNA 2: CCTTCATTCTACGCTGTCAATCGCAGGCTTCGGCTTTCTTGACCTTTGATCTACAAGAGC | 9.91 PBM z-score against 500 random probes
32 | NRC3_wobSeed66_DR2_C20T_o1 (dsDNA) DNA 1: GCAATACAGGGTCACTAGGTCAGAGTAGGTACGAATGCGATTGACAGCGTAGAATGAAGG DNA 2: CCTTCATTCTACGCTGTCAATCGCATTCGTACCTACTCTGACCTAGTGACCCTGTATTGC | 9.89 PBM z-score against 500 random probes
33 | NRC3_wobSeed65_DR2_T13C_o1 (dsDNA) DNA 1: GCATATGTAGGTCATCGGGTCATTCAGTTTGCGCATGCGATTGACAGCGTAGAATGAAGG DNA 2: CCTTCATTCTACGCTGTCAATCGCATGCGCAAACTGAATGACCCGATGACCTACATATGC | 10.2 PBM z-score against 500 random probes
